Substrate in series [1]: CCOCc1ccc(O)c(OC)c1
Nature of the series: Michaelis-Menten kinetics, purified enzyme, xylenol orange H2O2 assay (KM). Format: biochemical, Diplodia corticola. Conditions: FAD (covalently bound) catalytic center; Ala420 and Glu466 near the substrate (docking); pH 7.5; 25.0 °C.

Substrate in series [2]: COc1cc(CO)ccc1O
The description is as above. Format: biochemical, Diplodia corticola. Conditions: FAD (covalently bound) catalytic center; pH 7.5; 25.0 °C.

Substrate in series [3]: CCCCOCc1ccc(O)c(OC)c1
The description is as above. In kind it is biochemical, Diplodia corticola. Conditions: FAD (covalently bound) catalytic center; pH 7.5; 25.0 °C.

Substrate in series [4]: COCc1ccc(O)c(OC)c1
The series is described as above. Format: biochemical, Diplodia corticola. Conditions: FAD (covalently bound) catalytic center; pH 7.5; 25.0 °C.

Substrate in series [5]: C=CCc1ccc(O)c(OC)c1
Briefly: steady-state kinetics, purified enzyme, xylenol orange H2O2 assay (KM, Hill fit). In kind it is biochemical, Diplodia corticola. Conditions: FAD (covalently bound) catalytic center; pH 7.5; 25.0 °C.

Substrate in series [6]: CCOCc1ccc(O)c(OC)c1
Nature of the series: Michaelis-Menten kinetics, purified enzyme, xylenol orange H2O2 assay (KM). Format: biochemical, Penicillium simplicissimum. Particulars: FAD (covalently bound) catalytic center; pH 7.5; 25.0 °C.

Substrate in series [7]: COc1cc(CO)ccc1O
The description is as above. In kind it is biochemical, Penicillium simplicissimum. Particulars: FAD (covalently bound) catalytic center; pH 7.5; 25.0 °C.

Substrate in series [8]: COCc1ccc(O)c(OC)c1
Described as above. Format: biochemical, Penicillium simplicissimum. Particulars: FAD (covalently bound) catalytic center; pH 7.5; 25.0 °C.

Substrate in the series “purified protein”: C=CCc1ccc(O)c(OC)c1
Briefly: purified protein. Format: biochemical, Penicillium simplicissimum. Conditions: FAD (covalently bound) catalytic center; pH 7.5; 25.0 °C.

B1: DcVAO (vanillyl alcohol oxidase) (Diplodia corticola) (protein)
chain: MSLSRPLALPPGVSESTFHQFIERITKTTPDVTIVESKDQFPDGGYHEPPSSHDPFYVQDKDHFIASAFVCPRSVDEVQDIVRAAGDFVIPLWPTSLGRNLGYGGAAPRVRGSVVLNLGKHMNRILEVNVEGAYALVEPGVTFEALHNYLVEHNLRDKLWLDVPDLGGGSVLGNTLERGVGYTPYGDHFMMHSGMEVVLANGELLRTGMGALPAPKSETEGVTKLHEEPGNKCWQLFPYGFGPYNDGLFSQSNLGIVTKLGLGLMPNPGGYQSYLITIPGEEDLHKAVEIIRPLRLNNVIQNVPTLRYVLLDAGMMGHKSDYTSSTSPIDEATTDAIAKKLNLGRWNFYGALYGPPEIRTAMWKLIHAAFSAIPGARFFFPDDVADPRAVLHNRHNVLQGIPSYEELRWVDWVPNGAHVAFSPISRISGADAARQVDLAKRRCRDAGFDYMGTFTVGMREMHHIVEIVFDRTDAGQRKRAEALVRGLVDECAALGWGEYRTHLAFMDQIAGTYGWGGGALGRFNERVKEALDPKGILAPGKSGVWGSRFGELKGKL
B1: the Michaelis-Menten constant (Km) (in general, the substrate concentration at which the rate is half of its maximum) in series [1] is 198 ± 19 µM; in series [2], 297 ± 21 µM; in series [3], 258 ± 27 µM; in series [4], 263 ± 12 µM; in series [5] it was 60 ± 3 µM. The kcat – broadly, the number of substrate molecules converted per active site and unit of time at saturation – was 4.7 ± 0.2 s⁻¹ in series [1]; 4 ± 0.1 s⁻¹ in [2]; 2.1 ± 0.1 s⁻¹ in series [3]; 1.9 ± 0.01 s⁻¹ in series [4]; 10.3 ± 0.1 s⁻¹ in [5].

B2: PsVAO (vanillyl alcohol oxidase) (Penicillium simplicissimum) (protein)
chain: MSKTQEFRPLTLPPKLSLSDFNEFIQDIIRIVGSENVEVISSKDQIVDGSYMKPTHTHDPHHVMDQDYFLASAIVAPRNVADVQSIVGLANKFSFPLWPISIGRNSGYGGAAPRVSGSVVLDMGKNMNRVLEVNVEGAYCVVEPGVTYHDLHNYLEANNLRDKLWLDVPDLGGGSVLGNAVERGVGYTPYGDHWMMHSGMEVVLANGELLRTGMGALPDPKRPETMGLKPEDQPWSKIAHLFPYGFGPYIDGLFSQSNMGIVTKIGIWLMPNPRGYQSYLITLPKDGDLKQAVDIIRPLRLGMALQNVPTIRHILLDAAVLGDKRSYSSRTEPLSDEELDKIAKQLNLGRWNFYGALYGPEPIRRVLWETIKDAFSAIPGVKFYFPEDTPENSVLRVRDKTMQGIPTYDELKWIDWLPNGAHLFFSPIAKVSGEDAMMQYAVTKKRCQEAGLDFIGTFTVGMREMHHIVCIVFNKKDLIQKRKVQWLMRTLIDDCAANGWGEYRTHLAFMDQIMETYNWNNSSFLRFNEVLKNAVDPNGIIAPGKSGVWPSQYSHVTWKL
In the case of B2, the Michaelis constant (Km) in [6] is 86 ± 3 µM; in [7], 144 ± 10 µM; in series [8], 155 ± 5 µM; in the series “purified protein” it was 67 ± 2 µM. Besides, the kcat was 2.6 ± 0.02 s⁻¹ in series [6], 6.7 ± 0.1 s⁻¹ in series [7], 7.9 ± 0.1 s⁻¹ in series [8] and 18.7 ± 0.5 s⁻¹ in the series “purified protein”.

These data come from publication PMC10404669, “Vanillyl alcohol oxidase from Diplodia corticola: Residues Ala420 and Glu466 allow for efficient catalysis of syringyl derivatives” (The Journal of Biological Chemistry, 2023).
